The target of test [1] is T1, human Glypican-1 (human, UniProt P35052 24-530).
T1 construct: Endogenous GPC1 on human cancer cell lines: BxPC-3 in the FACS and internalization assays; TE8, TE14, BxPC3, KP-2 and PK-8 in the ADC assay; also called GPC-1; GPC1
T1 sequence: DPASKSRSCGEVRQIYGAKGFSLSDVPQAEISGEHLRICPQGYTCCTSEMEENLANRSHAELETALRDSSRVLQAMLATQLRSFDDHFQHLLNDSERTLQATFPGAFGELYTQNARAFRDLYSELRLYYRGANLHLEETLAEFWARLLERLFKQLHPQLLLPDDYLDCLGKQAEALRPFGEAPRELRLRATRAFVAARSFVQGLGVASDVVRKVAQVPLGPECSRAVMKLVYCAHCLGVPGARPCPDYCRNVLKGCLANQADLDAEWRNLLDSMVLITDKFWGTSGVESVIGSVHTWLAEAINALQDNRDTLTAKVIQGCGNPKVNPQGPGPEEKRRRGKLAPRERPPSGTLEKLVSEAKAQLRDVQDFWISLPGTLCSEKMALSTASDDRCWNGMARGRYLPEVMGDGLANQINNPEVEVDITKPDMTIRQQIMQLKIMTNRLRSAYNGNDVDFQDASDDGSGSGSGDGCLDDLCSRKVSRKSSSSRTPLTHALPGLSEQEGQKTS
In words: FACS on BxPC-3 cells pre-treated with GPC1-ADC (01a033) MMAE, streptavidin-PE detection.

In test [2] the target is T1, human Glypican-1. In words: FACS titration on BxPC-3 cells, FITC anti-mouse IgG secondary.

B1: biotin-labeled anti-GPC1 antibody 02b006 (antibody, mouse IgG2a, kappa, V domains shown)
VH: EVQLVESGGGLVKPGGSRKLSCAASGFTFSDYGMHWVRQAPEKGLEWVAYISSGSSTIYYADTVKGRFTISRDNAKNTLFLQMTSLRSEDTAIYYCVRHSYYNYDIGGYYAMDYWGQGTSVTVSS
VL: DIVLTQSPSSLSASLGERVSLTCRASQEISGYLSWLQQKPDGTIKRLIYAASTLDSGVPKRFSGSRSGSDYSLTISSLESEDFADYYCLQYASYPLTFGAGTKLEIKR
modifications: biotin-labeled (site not given)
notes: Detection antibody for GPC1 left on the cell surface in the internalization assay, read out with streptavidin-PE; also called anti-GPC1 mAb (biotin-labeled 02b006); K090-02b006
For the molecule B1, the binding result with human Glypican-1 [1] is “binds”.

B2: anti-GPC1 monoclonal antibody (clone K090-01a033) (antibody, mouse IgG2a, kappa, V domains shown)
VH: QVQLKQSGPELVKPGASVKISCKASGYSFTGYYMHWVKQSPEKSLEWIGEINPSTGDTTYNQKFKAKATLTVDKSSSTAYMQLKSLTSEDSAVYYCAREKRDDGVFAYWGQGTLVTVSS
VL: DIVMSQSPKSMSMSVGERVALSCKASENVGTYVSWYQQKPEQSPKLLIYGASNRYTGVPDRFTGSGSATDFTLTISSVQAEDLADYYCGQSYSYPLTFGAGTKLELKR
notes: Mouse monoclonal antibody; mouse IgG2a kappa (MOPC173) was used as its isotype control; also called mouse anti-GPC-1 clone 01a033; mouse anti-human Glypican-1 mAb (01a033)
B2: the binding result with human Glypican-1 [2] was “binds”.

B3: GPC1-ADC (01a033) MMAE (antibody, mouse IgG2a, kappa, V domains shown)
VH: QVQLKQSGPELVKPGASVKISCKASGYSFTGYYMHWVKQSPEKSLEWIGEINPSTGDTTYNQKFKAKATLTVDKSSSTAYMQLKSLTSEDSAVYYCAREKRDDGVFAYWGQGTLVTVSS
VL: DIVMSQSPKSMSMSVGERVALSCKASENVGTYVSWYQQKPEQSPKLLIYGASNRYTGVPDRFTGSGSATDFTLTISSVQAEDLADYYCGQSYSYPLTFGAGTKLELKR
modifications: MC-vc-PAB-MMAE on reduced interchain cysteine residues; DAR 3.7 per antibody; MC-vc-PAB-MMAE (maleimidocaproyl-valine-citrulline-p-aminobenzyloxycarbonyl-monomethyl auristatin E) on reduced interchain cysteine residues; DAR 3.7 per antibody
notes: also called GPC1-ADC (MMAE); αGPC1-CL-MMAE
B3: the binding result with human Glypican-1 [2] was “binds”.
